Measurements from paper PMC5720721, “A thermal after-effect of UV irradiation of muscle glycogen phosphorylase b” (PLoS ONE, 2017).

Molecular target: the molecule itself
Test: AUC; sedimentation velocity; native Phb and UV-Phb 0.75 mg/ml; 0.03 M Hepes, pH 6.8, 0.1 M NaCl; 20°C; rotor speed 52000 rpm; growing time (dose) of UV irradiation

B1: glycogen phosphorylase b from rabbit skeletal muscle (enzyme, UniProt P00489 1-843, looked up)
chain: MSRPLSDQEKRKQISVRGLAGVENVTELKKNFNRHLHFTLVKDRNVATPRDYYFALAHTVRDHLVGRWIRTQQHYYEKDPKRIYYLSLEFYMGRTLQNTMVNLALENACDEATYQLGLDMEELEEIEEDAGLGNGGLGRLAACFLDSMATLGLAAYGYGIRYEFGIFNQKICGGWQMEEADDWLRYGNPWEKARPEFTLPVHFYGRVEHTSQGAKWVDTQVVLAMPYDTPVPGYRNNVVNTMRLWSAKAPNDFNLKDFNVGGYIQAVLDRNLAENISRVLYPNDNFFEGKELRLKQEYFVVAATLQDIIRRFKSSKFGCRDPVRTNFDAFPDKVAIQLNDTHPSLAIPELMRVLVDLERLDWDKAWEVTVKTCAYTNHTVLPEALERWPVHLLETLLPRHLQIIYEINQRFLNRVAAAFPGDVDRLRRMSLVEEGAVKRINMAHLCIAGSHAVNGVARIHSEILKKTIFKDFYELEPHKFQNKTNGITPRRWLVLCNPGLAEIIAERIGEEYISDLDQLRKLLSYVDDEAFIRDVAKVKQENKLKFAAYLEREYKVHINPNSLFDVQVKRIHEYKRQLLNCLHVITLYNRIKKEPNKFVVPRTVMIGGKAAPGYHMAKMIIKLITAIGDVVNHDPVVGDRLRVIFLENYRVSLAEKVIPAADLSEQISTAGTEASGTGNMKFMLNGALTIGTMDGANVEMAEEAGEENFFIFGMRVEDVDRLDQRGYNAQEYYDRIPELRQIIEQLSSGFFSPKQPDLFKDIVNMLMHHDRFKVFADYEEYVKCQERVSALYKNPREWTRMVIRNIATSGKFSSDRTIAQYAREIWGVEPSRQRLPAPDEKIP
notes: glycogen phosphorylase b, muscle form, rabbit skeletal muscle; Mr of the dimer printed as 194800 Da; also called Phb; intact Phb; source: purified from rabbit skeletal muscle
- stoichiometry N: 2
